Target: T1, 抗原表位融合多肽AFBMG
T1 sequence: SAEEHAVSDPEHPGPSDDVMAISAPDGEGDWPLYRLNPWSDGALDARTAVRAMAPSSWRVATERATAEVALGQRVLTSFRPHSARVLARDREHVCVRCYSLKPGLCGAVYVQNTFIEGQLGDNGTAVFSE
Test: colloidal gold test strip with gold-labelled Nano-AF; dilution series of AFBMG from 1 mg/mL, three repeats

B1: 黄曲霉毒素纳米抗体Nano-AF (VHH)
VHH: QLQLGGSGGGLVQPGGLVQACAASGSTFAGFRAMGWRQAFRQAREFVAAITWSGASTYYTDSVKGRFTISRDNAKNTVYLQMNNLESLKPEDTAVYYCAGFMYYASNYCRYWGQGTQVTVSS
Work on B1 yielded a 最低检测限 of 10 ng/mL.
